pIC50, pKd: −log10 of the molar value.
Columns and labels:
[1] = target: murine EphB4-Alkaline Phosphatase (murine) (UniProt P54761); test: competition ELISA: murine EphB4-AP binding to immobilised murine ephrin-B2-Fc
murine EphB4-Fc (murine) = murine EphB4-Fc (murine) (UniProt P54761); test: ELISA: murine EphB4-Fc on protein A plates, biotinylated peptide detected with streptavidin-HRP
[2] = target: murine EphB4-Alkaline Phosphatase (murine) (UniProt P54761); test: ELISA binding curve: TNYL-RAW Fc immobilised, increasing volumes of murine EphB4 AP, OD405; one experiment

Chain of murine EphB4-Alkaline Phosphatase (murine) (P54761 16-539): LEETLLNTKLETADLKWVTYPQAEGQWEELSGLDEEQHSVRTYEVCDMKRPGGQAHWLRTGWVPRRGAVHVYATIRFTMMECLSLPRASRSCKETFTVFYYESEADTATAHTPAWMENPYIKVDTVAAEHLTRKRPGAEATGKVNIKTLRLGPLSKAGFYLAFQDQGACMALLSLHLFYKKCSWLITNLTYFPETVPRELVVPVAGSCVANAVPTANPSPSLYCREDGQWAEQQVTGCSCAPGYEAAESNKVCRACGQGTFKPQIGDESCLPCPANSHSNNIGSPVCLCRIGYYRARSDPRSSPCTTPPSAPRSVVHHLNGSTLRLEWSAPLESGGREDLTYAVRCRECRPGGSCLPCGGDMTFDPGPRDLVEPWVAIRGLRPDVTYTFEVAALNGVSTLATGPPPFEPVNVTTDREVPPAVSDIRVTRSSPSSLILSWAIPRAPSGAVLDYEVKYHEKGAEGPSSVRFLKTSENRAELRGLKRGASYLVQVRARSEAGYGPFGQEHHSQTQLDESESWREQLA
Chain of murine EphB4-Fc (murine) (P54761 16-539 limits assumed): as the sequence (P54761 16-539) above

Row | Substance | pIC50 [1] | pKd (murine EphB4-Fc (murine)) | pKd [2]
1 | PEG 10 kDa-linked TNYL-RAW-biotin dimer (peptide) | 8.05 | 9.05 | –
2 | TNYL-RAW Fc fusion protein | – | – | 8.00
3 | PEG 3.4 kDa-linked TNYL-RAW-biotin dimer (peptide) | 8.15 | 9.05 | –
4 | TNYL-RAW-biotin coupled to monofunctional 10 kDa PEG (monomer) (peptide) | 7.68 | 8.85 | –
